Values joined by “and” are separate entries in the source; they are usually repeats but may differ in a detail not shown here. Identical values can stand only once.
Key:
Type in all cases: biochemical
[1] = Conversion of 50 mM coniferyl alcohol to vanillin by CO-25; conditions: for Intermediate and product distribution at 24 hours 2a [%] / Intermediate and product distribution at 24 hours 3a [%] / Intermediate and product distribution at 24 hours 5a [%] / 2a / 3a / 5a / Conv. [%]: CO-25 3 mg CFE, catalase 4 mg, 0.4 mL, 50 mM coniferyl alcohol 2a; for 2a / 3a / 5a / Conv. [%]: 24 hours
Procedure: In each well of a deep-well-plate sealed with a gas permeable tape we mixed CO-25 (3 mg CFE) and catalase (4 mg) with coniferyl alcohol 2a (3.6 mg, 0.02 mL from 1M stock, final conc.: 50 mM) to a final volume of 0.4 mL. After one day incubation shaking at 290 rpm we obtained 40-46% conversion of coniferyl alcohol 2a to vanillin 3a (Table 10).

[2] = Bioconversion of eugenol to vanillin: one-pot concurrent cascade EUGO + alkene cleavage oxygenase (5 mM scale); conditions: 5 mM eugenol; for Intermediate and product distribution at 24 hours 2a [%] / Intermediate and product distribution at 24 hours 3a [%] / Intermediate and product distribution at 24 hours 5a [%] / 2a / 3a / 5a / Conv. [%] ((3a mM)/5*100): EUGO 0.5 mg CFE, CO-25 3 mg CFE, catalase 5 mg; for 2a / 3a / 5a / Conv. [%] ((3a mM)/5*100): 24 hours
How it was run: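 Cell-free extracts of EUGO (0.5 mg) and cleavage oxygenase (3 mg) were combined with catalase, 1 mM FeSO4 and 1 mM ascorbate in glycine-NaOH pH 9.0 (or Tris-HCl pH 8.0). The cascade ran with 5 mM eugenol (5% ethanol/DMSO cosolvent) at 30° C and 120 rpm overnight. Methanol-quenched samples were analysed by HPLC at 280/340 nm.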

[3] = Subsequent screening of alkene cleavage oxygenases: activity with coniferyl alcohol
Procedure: Therefore, 50 mL TB-Kan medium in a 250 mL shake flask were inoculated with an overnight preculture of E. coi BL21 (DE3) carrying a pET-28a plasmid encoding CO-25 in the expression cassette. At OD600 ˜0.8-1, the expression was induced with 0.1 mM IPTG and the culture incubated at 25° C. for 20 hours. 0.5 mM FeSO4*7H2O was added together with the inducer. Then, the cells were disrupted by sonication in Glycine-NaOH 50 mM pH 9.0 containing 1 mM FeSO4*7H2O and 1 mM sodium ascorbate. After centrifugation, the cell free extract was lyophilized and stored at −20° C. From 50 mL cell culture we obtained 235 mg of freeze-dried cell free extract.

B1: CO-25: cleavage oxygenase from Novosphingobium aromaticivorans (Uniprot: Q2GA76), SEQ ID NO: 134 (protein)
chain: MAQFPNTPSFTGFNTPSRIEADIADLAHEGTIPQGLNGAFYRVQPDPQFPPRLDDDIAFNGDGMITRFHIHDGQVDFRQRWAKTDKWKLENAAGKALFGAYRNPLTDDEAVKGEIRSTANTNAFVFGGKLWAMKEDSPALVMDPATMETFGFEKFGGKMTGQTFTAHPKVDPKTGNMVAIGYAASGLCTDDVTYMEVSPEGELVREVWFKVPYYCMMHDFGITEDYLVLHIVPSIGSWERLEQGKPHFGFDTTMPVHLGIIPRRDGVRQEDIRWFTRDNCFASHVLNAWQEGTKIHFVTCEAKNNMFPFFPDVHGAPFNGMEAMSHPTDWVVDMASNGEDFAGIVKLSDTAAEFPRIDDRFTGQKTRHGWFLEMDMKRPVELRGGSAGGLLMNCLFHKDFETGREQHWWCGPVSSLQEPCFVPRAKDAPEGDGWIVQVCNRLEEQRSDLLIFDALDIEKGPVATVNIPIRLRFGLHGNWANADEIGLAEKVLAA
modifications: Novosphingobium aromaticivorans
With B1 the “Intermediate and product distribution at 24 hours 2a [%]” value ([1]; pH 8) was 47.7%, the “Intermediate and product distribution at 24 hours 3a [%]” value ([1]; pH 8) was 51.1% and the “Intermediate and product distribution at 24 hours 5a [%]” value ([1]; pH 8) was 1.1%. The “2a” value ([1]; pH 8) was 21.48 mM, the “3a” value ([1]; pH 8) was 23.01 mM and the “5a” value ([1]; pH 8) was 0.52 mM. The “Conv. [%]” value ([1]; pH 8) was 46.0%, the “Intermediate and product distribution at 24 hours 2a [%]” value ([1]; pH 9) was 52.5% and the “Intermediate and product distribution at 24 hours 3a [%]” value ([1]; pH 9) was 45.7%. The “Intermediate and product distribution at 24 hours 5a [%]” value ([1]; pH 9) was 1.9%, the “2a” value ([1]; pH 9) was 22.87 mM and the “3a” value ([1]; pH 9) was 19.92 mM. For the same molecule, the “5a” value ([1]; pH 9) was 0.81 mM, the “Conv. [%]” value ([1]; pH 9) was 39.8% and the “conversion of coniferyl alcohol 2a to vanillin 3a” value ([1]; CO-25, 50 mM 2a, one day incubation) was 40-46%. For the same molecule, the “Intermediate and product distribution at 24 hours 2a [%]” value ([2]; pH 8) was 16.4% and 17.1%, the “Intermediate and product distribution at 24 hours 3a [%]” value ([2]; pH 8) was 83.1% and 82.4% and the “Intermediate and product distribution at 24 hours 5a [%]” value ([2]; pH 8) was 0.5%. The “2a” value ([2]; pH 8) was 4.18 mM and 4.39 mM, the “3a” value ([2]; pH 8) was 4.18 mM and 4.39 mM and the “5a” value ([2]; pH 8) was 0.03 mM. The “Conv. [%] ((3a mM)/5*100)” value ([2]; pH 8) was 83.5% and 87.7%, the “Intermediate and product distribution at 24 hours 2a [%]” value ([2]; pH 9) was 12.8% and 11.6% and the “Intermediate and product distribution at 24 hours 3a [%]” value ([2]; pH 9) was 86.3% and 87.5%. The “Intermediate and product distribution at 24 hours 5a [%]” value ([2]; pH 9) was 0.9%, the “2a” value ([2]; pH 9) was 4.31 mM and 4.21 mM and the “3a” value ([2]; pH 9) was 4.31 mM and 4.21 mM. The “5a” value ([2]; pH 9) was 0.05 mM and 0.04 mM, the “Conv. [%] ((3a mM)/5*100)” value ([2]; pH 9) was 86.2% and 84.2% and the “conversion to vanillin 3a” value ([2]; EUGO and CO-25, 0.5 mL scale, pH 8 and 9) was 83-88%. The “activity with coniferyl alcohol in comparison to NOV1 mutant S283F” value [3] was “significant higher activity”.
